2 substances from patent US20060058253 can be followed below.

In data set [1] the target is MS2 bacteriophage coat protein (Bacteriophage MS2) (UniProt P03612). The conditions noted are these: likely CITED; stated Kd for cognate site.
For data set [2], the target named is hnRNP A1/A2 (Homo sapiens) (UniProt P09651+P22626). The conditions noted are these: apparent Kd, likely CITED; stated for A1 and A2; excess TS10 abolishes ABS stimulation in HeLa extract.
Chain of hnRNP A1/A2 (Homo sapiens) (P09651 whole entry, chain 1 of 2): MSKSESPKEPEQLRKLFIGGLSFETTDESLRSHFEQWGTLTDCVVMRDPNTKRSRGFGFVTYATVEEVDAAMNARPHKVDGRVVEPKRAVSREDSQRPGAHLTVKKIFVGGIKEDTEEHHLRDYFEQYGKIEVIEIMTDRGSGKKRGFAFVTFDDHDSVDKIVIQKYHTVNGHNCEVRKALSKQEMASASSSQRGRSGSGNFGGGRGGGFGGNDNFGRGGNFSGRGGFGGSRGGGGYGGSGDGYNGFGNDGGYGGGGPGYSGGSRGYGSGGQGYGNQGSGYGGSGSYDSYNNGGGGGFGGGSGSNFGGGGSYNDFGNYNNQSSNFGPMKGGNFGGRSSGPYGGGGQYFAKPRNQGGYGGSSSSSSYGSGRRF
Chain of hnRNP A1/A2 (Homo sapiens) (P22626 whole entry, chain 2 of 2): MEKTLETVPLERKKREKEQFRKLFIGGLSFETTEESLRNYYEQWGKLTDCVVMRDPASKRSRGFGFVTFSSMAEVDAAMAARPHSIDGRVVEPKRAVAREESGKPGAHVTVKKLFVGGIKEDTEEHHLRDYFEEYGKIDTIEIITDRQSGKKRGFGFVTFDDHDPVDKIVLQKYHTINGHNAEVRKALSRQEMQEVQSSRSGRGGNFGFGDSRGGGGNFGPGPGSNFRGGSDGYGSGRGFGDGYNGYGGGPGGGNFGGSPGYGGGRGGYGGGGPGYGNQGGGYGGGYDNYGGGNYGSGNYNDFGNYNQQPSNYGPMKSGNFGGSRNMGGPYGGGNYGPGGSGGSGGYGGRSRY

Chain of MS2 bacteriophage coat protein (Bacteriophage MS2) (P03612 2-130): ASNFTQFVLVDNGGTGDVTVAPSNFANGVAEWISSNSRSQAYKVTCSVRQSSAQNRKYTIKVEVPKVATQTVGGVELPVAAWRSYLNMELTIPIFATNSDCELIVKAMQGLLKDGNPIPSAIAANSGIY

Regarding “MS2 stem-loop binding site in C5 pre-mRNA (position -26)”, in data set [1], the Kd is 1 nM.
Consider “TS10 telomeric DNA oligo (60 nt, nine A1 binding sites)”, for which the Kd in data set [2] is below 5 nM.
